Experiments:
[1] = target: epitope … (98-106) of the haemagglutinin of the human influenza virus (human influenza virus); assay: rounded affinity in the description; antigen not given
[2] = target: Bio-C-HA (acetyl-… (ε-biotinoyl)-amide) (human influenza virus); assay: SPR (BIACORE), biotinylated peptide on streptavidin chip, antibody in solution
[3] = target: Bio-N-HA (biotinoyl-ε-Aca-…-amide) (human influenza virus); assay: as above
[4] = target: Glutathione-S-transferase modified with the HA epitope (GST-HA) (human influenza virus); assay: Western blot, 4 ng GST-HA per lane, primary antibody titrated; chemiluminescence
[5] = target: Green-fluorescent protein modified with the HA epitope (GFP-HA) (human influenza virus) [GFP: P42212]; assay: immunoprecipitation of 50 ng GFP-HA with protein G, then Western blot
[6] = target: Glutathione-S-transferase modified with the HA epitope (GST-HA) (human influenza virus); assay: Western blot of serially diluted GST-HA; 0.1 µg/ml 3F10 against 1 µg/ml 12CA5; chemiluminescence
[7] = target: Glutathione-S-transferase modified with the HA epitope (GST-HA) (human influenza virus); assay: Western blot of serially diluted GST-HA with antibody-peroxidase conjugate (20 mU/ml); chemiluminescence
[8] = target: Glutathione-S-transferase modified with the HA epitope (GST-HA) (human influenza virus); assay: Western blot of serially diluted GST-HA with antibody-peroxidase conjugate (100 ng/ml); chemiluminescence

| Substance | Ka [1] [M⁻¹] | Ka [2] [M⁻¹] | koff [2] [s⁻¹] | kon [2] [M⁻¹ s⁻¹] | Ka [3] [M⁻¹] | koff [3] [s⁻¹] | kon [3] [M⁻¹ s⁻¹] | antibody concentration at which the antibody becomes the limiting factor [4] [ng/mL] | fold lower antibody quantity to precipitate the antigen against clone 12CA5 [5] [fold] | fold higher affinity than 12CA5 and BabCo [1] [fold] | antibody concentration at signal saturation [4] [ng/mL] | fold lower antibody concentration for comparable signals against clone 12CA5 [4] [fold] | fold lower detectable amount of GST-HA against clone 12CA5 [6] [fold] | amount still detected [7] [pg GST-HA] | detection limit [8] [ng GST-HA] |
| --- | --- | --- | --- | --- | --- | --- | --- | --- | --- | --- | --- | --- | --- | --- | --- |
| anti-HA BabCo (antibody) | 1e+07 | 9.3e+06 | 0.001 | 9500 | 2.3e+07 | 0.0005 | 12000 | – | – | – | – | – | – | – | – |
| mAB 12CA5 (antibody) | 1e+08 | 9.2e+07 | 0.00026 | 23000 | 2.6e+08 | 0.00021 | 53000 | < 2000 | – | – | – | – | – | – | – |
| mAB R 3F10 (antibody) | 1e+10 | 1.2e+10 | 4.8e-05 | 590000 | 6.8e+09 | 9.1e-05 | 620000 | – | < 20 | 30 | 125 | 20 | 30 | – | – |
| peroxidase conjugate of the clone 3F10 (antibody) | – | – | – | – | – | – | – | – | – | – | – | – | – | 40 | – |
| peroxidase conjugate of the clone 12CA5 (antibody) | – | – | – | – | – | – | – | – | – | – | – | – | – | – | 1 |

— patent publication US7255859
